Assay results taken from patent publication US12692310B2, “ASIC1 channel antagonist antibody” (ShanghaiTech University, priority 2019, dated 2026).
Where a chain is given by its changes, count along the chain named.

Legend:
Experiment in all cases: FACS binding to alanine mutant hASIC1a-eYFP on CHO-K1 cells
Type in all cases: cell-based
Settings in all cases: vs WT hASIC1a
hASIC1a Y360A = target: T1, hASIC1a Y360A (Homo sapiens, UniProt P78348, Y360A)
T1 construct: expressed in transfected cells; host or cells: CHO-K1, transient
T1 sequence (P78348 1-528 Y360A): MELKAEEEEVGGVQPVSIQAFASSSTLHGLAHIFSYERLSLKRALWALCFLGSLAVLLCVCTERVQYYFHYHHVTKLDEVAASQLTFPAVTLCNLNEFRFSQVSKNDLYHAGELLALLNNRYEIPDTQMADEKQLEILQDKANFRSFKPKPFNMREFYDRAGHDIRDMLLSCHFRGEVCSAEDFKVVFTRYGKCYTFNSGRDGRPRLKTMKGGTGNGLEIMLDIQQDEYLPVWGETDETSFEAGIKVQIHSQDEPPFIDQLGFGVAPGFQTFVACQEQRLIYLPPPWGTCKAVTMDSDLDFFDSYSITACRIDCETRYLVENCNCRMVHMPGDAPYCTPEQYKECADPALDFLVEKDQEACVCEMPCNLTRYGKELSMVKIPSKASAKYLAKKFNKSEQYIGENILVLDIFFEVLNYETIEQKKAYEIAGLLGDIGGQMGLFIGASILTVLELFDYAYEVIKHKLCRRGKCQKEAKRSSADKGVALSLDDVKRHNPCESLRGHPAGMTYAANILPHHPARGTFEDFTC
Protocol: (§1) To confirm the role of these amino acids, alanine mutagenesis was performed and four amino acids are very important for antibody binding were identified. Plasmid encoding single amino acid mutation of hASIC1a-eYFP was constructed and transient transfected into CHO-K1 cells. FACS binding assay was then performed to test whether the ASC06-IgG1 still binds to cell surface expressing mutated hASIC1a.

hASIC1a N322A = target: T2, hASIC1a N322A (Homo sapiens, UniProt P78348, N322A)
T2 construct: expressed in transfected cells; host or cells: CHO-K1, transient
T2 sequence (P78348 1-528 N322A): T1 sequence (P78348 1-528 Y360A) with N322A, A360Y
Protocol: as §1

hASIC1a Y318A = target: T3, hASIC1a Y318A (Homo sapiens, UniProt P78348, Y318A)
T3 construct: expressed in transfected cells; host or cells: CHO-K1, transient
T3 sequence (P78348 1-528 Y318A): T1 sequence (P78348 1-528 Y360A) with Y318A, A360Y
Protocol: as §1

B1: ASC06-IgG1: ASC06 antibody converted into a full length IgG1 form (antibody, V domains shown)
VH: QVQLQQSGGGLVQPGGSLRLSCAASGFTFSSYAMSWVRQAPGKGLEWVSAISGSGGSTYYADSVKGRFTISRDNSKNTLYLQMNSLRAEDTAVYYCAKDSFYGYSKGDWGQGTLVTVSS
VL: QSALTQPASVSGSPGQSITISCTGTSSDVGAYNYVSWYQQQPGKAPKLMIYGVSNRPSGVSNRFSGSKSGNAASLTISGLQAEDEADYYCSSYTSSSTYVFGTGTKLTVLG
binding to hASIC1a Y360A mutation (hASIC1a Y360A): decrease | binding to hASIC1a N322A mutation (hASIC1a N322A): decrease | binding to hASIC1a Y318A mutation (hASIC1a Y318A): abolished
